# Data published in paper PMC5458344.
# What was measured:
# [1] = target: GST-emerin (amino acids 1–176, lacking the TM domain) (UniProt P50402); assay: reverse GST pull-down with western blot densitometry; conditions: lysates of U2OS cells transfected with GFP-nesprin-1α2 WT or mutant; three independent experiments, mean ± SEM; parent: est. 1.0; read off a plot
# [2] = target: GST-lamin A (amino acids 356–665, containing nesprin-1/2 binding domain) (UniProt P02545); assay: as above; conditions: lysates of U2OS cells transfected with GFP-nesprin-1α2 WT or mutant; three independent experiments, mean ± SEM; parent: est. 1.0; read off a plot
# [3] = target: lamin A/C (endogenous, U2OS lysate; lamin A and lamin C bands quantified together); assay: GST pull-down with western blot densitometry; conditions: U2OS cell lysate; three independent experiments, mean ± SEM; parent: est. 1.0; read off a plot
# [4] = target: emerin (endogenous) (UniProt P50402); assay: GST pull-down with western blot densitometry; conditions: U2OS cell lysate; three independent experiments, mean ± SEM; parent: est. 1.0; read off a plot
# [5] = target: Myc-SUN2 (full length) (UniProt Q9UH99); assay: GST pull-down with western blot densitometry; conditions: lysate of U2OS cells transfected with Myc-SUN2 (full length); three independent experiments, mean ± SEM; parent: est. 1.0; read off a plot
# Chain of UniProt Q9UH99 (Q9UH99 whole entry): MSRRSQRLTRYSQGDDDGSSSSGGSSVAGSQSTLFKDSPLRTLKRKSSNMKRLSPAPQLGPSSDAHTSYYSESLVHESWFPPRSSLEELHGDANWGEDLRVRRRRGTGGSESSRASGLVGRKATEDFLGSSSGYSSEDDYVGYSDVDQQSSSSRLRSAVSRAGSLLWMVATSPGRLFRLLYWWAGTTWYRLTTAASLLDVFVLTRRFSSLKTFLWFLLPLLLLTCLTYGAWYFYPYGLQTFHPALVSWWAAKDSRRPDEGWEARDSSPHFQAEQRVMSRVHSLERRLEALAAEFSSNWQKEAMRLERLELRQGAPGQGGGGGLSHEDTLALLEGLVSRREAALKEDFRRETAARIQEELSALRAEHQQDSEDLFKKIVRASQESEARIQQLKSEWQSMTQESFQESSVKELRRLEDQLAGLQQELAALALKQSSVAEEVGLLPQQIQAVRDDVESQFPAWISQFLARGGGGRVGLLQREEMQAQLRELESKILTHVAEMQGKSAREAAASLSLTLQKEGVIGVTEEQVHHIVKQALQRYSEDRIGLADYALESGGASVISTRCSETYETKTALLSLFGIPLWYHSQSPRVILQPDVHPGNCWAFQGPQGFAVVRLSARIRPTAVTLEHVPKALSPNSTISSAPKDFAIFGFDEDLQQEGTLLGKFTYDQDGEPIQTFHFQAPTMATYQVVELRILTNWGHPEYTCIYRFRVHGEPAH
# Chain of UniProt P02545 (P02545 356-664): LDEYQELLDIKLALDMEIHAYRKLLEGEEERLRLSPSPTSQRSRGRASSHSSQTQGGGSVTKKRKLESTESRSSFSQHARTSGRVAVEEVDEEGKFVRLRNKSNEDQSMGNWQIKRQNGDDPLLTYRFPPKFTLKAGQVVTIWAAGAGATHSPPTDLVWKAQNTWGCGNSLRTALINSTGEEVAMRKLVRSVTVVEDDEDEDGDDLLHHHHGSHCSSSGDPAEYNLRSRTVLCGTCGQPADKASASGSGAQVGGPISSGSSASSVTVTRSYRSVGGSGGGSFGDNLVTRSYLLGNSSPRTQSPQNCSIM
Substance,ratio to parent [1],ratio to parent [2],ratio to parent [3],ratio to parent [4],ratio to parent [5]
GFP-tagged nesprin-1α2 WT N8406K,1.1,0.31,,,
GFP-tagged nesprin-1α2 WT R8272Q,1.1,0.33,,,
GFP-tagged nesprin-1α2 WT S8381C,0.93,0.17,,,
GST-tagged WT nesprin-1α2 SR1-6 (lacking KASH domain) N8406K,,,0.17,1.2,0.15
GST-tagged WT nesprin-1α2 SR1-6 (lacking KASH domain) R8272Q,,,0.18,1,0.25
GST-tagged WT nesprin-1α2 SR1-6 (lacking KASH domain) S8381C,,,0.12,0.87,0.19
